Series [1] relates to norovirus GII.2 VLP (VP1) (Norovirus GII.2). The following applies: FRA: 1 nM 32P-aptamer, 0-1500 nM VLP, 60 min, each aptamer's original selection buffer (M1, M6-2, SMV19, SMV21: PBS pH 7.4; others in Table S1, not in material); cited from earlier work.
Series [2] has as its system norovirus GII.4 Sydney VLP (VP1) (Norovirus GII.4 Sydney). Description: filter binding. The following applies: FRA: 1 nM 32P-aptamer, 0-1500 nM VLP, 60 min, each aptamer's original selection buffer (M1, M6-2, SMV19, SMV21: PBS pH 7.4; others in Table S1, not in material).
The test system of series [3] is norovirus GII.3 VLP (VP1) (Norovirus GII.3). Description: filter binding. The following applies: FRA: 1 nM 32P-aptamer, 0-1500 nM VLP, 60 min, each aptamer's original selection buffer (M1, M6-2, SMV19, SMV21: PBS pH 7.4; others in Table S1, not in material).
The test system of series [4] is norovirus GII.4 New Orleans VLP (VP1) (Norovirus GII.4 New Orleans). Description: filter binding. The following applies: FRA: 1 nM 32P-aptamer, 0-1500 nM VLP, 60 min, each aptamer's original selection buffer (M1, M6-2, SMV19, SMV21: PBS pH 7.4; others in Table S1, not in material).
Series [5] concerns norovirus GI.7 VLP (VP1) (Norovirus GI.7). In words: filter binding. The following applies: FRA: 1 nM 32P-aptamer, 0-1500 nM VLP, 60 min, each aptamer's original selection buffer (M1, M6-2, SMV19, SMV21: PBS pH 7.4; others in Table S1, not in material).
Series [6] has as its system norovirus P-domain (Norovirus GII.4). The following applies: FRA: 1 nM 32P-aptamer, 0-1500 nM VLP, 60 min, each aptamer's original selection buffer (M1, M6-2, SMV19, SMV21: PBS pH 7.4; others in Table S1, not in material); cited from earlier work.
The test system is the same in series [7]. In words: filter binding. The following applies: FRA: 1 nM 32P-aptamer, 0-1500 nM VLP, 60 min, each aptamer's original selection buffer (M1, M6-2, SMV19, SMV21: PBS pH 7.4; others in Table S1, not in material).

For orientation: Kd means a measure of binding affinity in units of concentration.

In the case of “CCATGTTTTGTAGGTGTAATAGGTCATGTTAGGGTTTCTG [SMV21]”, the Kd in series [1] was 101 nM; in series [2], 1250 nM; in series [3], 464 nM; in series [4], 1780 nM.

On to “GTCTGTAGTAGGGAGGATGGTCCGGGGCCCCGAGACGACGTTATCAGGC [Beier]”, for which the Kd in series [2] amounted to 71 nM; in series [3], 115 nM; in series [5], 63 nM; in series [4], 105 nM.

As to “TGTTTATGGGGATAAACGTATCTAATTCGTGTACTAATCA [M1]”, the Kd stood at 388 nM in series [2] and 963 nM in series [4].

For “TGGGAAGAGGTCCGGTAAATGCAGGGTCAGCCCGGAGAG [M6-2]”, the Kd is 1130 nM in series [2] and 928 nM in series [4].

As for “GAAATTGGGTTCGGGTTTGGGTTGGGATTACTTAGCGATG [Buf-2]”, the Kd in series [6] was 17 nM; in series [2] it was 241 nM; in series [3], 465 nM; in series [4], 351 nM. The same sequence showed a binding signal in series [7] of 100%.

As to “GCTAGCGAATTCCGTACGAAGGGCGAATTCCACATTGGGCTGCAGCCCGGGGGATCC [AG3]”, the Kd in series [2] came out at 313 nM; in series [4], 1030 nM.

Turning to “CACCAGTGTGTTGAGGTTTGAGCACACTGATAGAGTGTCA [SMV19]”, the Kd was 191 nM in series [1] and 9340 nM in series [4].

Values taken from article PMC8396345.
